Assay results published in paper PMC2141644 (The Journal of Cell Biology, 1997).

Target: F-actin (actin filaments) from rabbit skeletal muscle (rabbit, UniProt P68135 1-377)
Assay: co-sedimentation

- Kd: ~2600 nM
- stoichiometry N: ~1.1 actin molecules per GST–abLIM monomer
B1: GST-dem (GST fused to abLIM amino acids 585-778) (domain or fragment)
chain: RSSGREEDDEELLRRRQLQEEQLMKLNSGLGQLILKEEMEKESRERSSLLASRYDSPINSASHIPSSKTASLPGYGRNGLHRPVSTDFAQYNSYGDVSGGVRDYQTLPDGHMPAMRMDRGVSMPNMLEPKIFPYEMLMVTNRGRNKILREVDRTRLERHLAPEVFREIFGMSIQEFDRLPLWRRNDMKKKAKLF
